# Assay results reported in patent US20060024297A1 (published 2006).
# “And” between values parts separate entries of the source, which are not always exact repeats. Equal values may be shown once.
# T1: recombinant mouse Tie1-Fc (mouse, UniProt Q06806 23-755, limits assumed)
# T1 construct: also called Tie-1 Fc Mouse; not shown: Fc
# T1 sequence (looked up): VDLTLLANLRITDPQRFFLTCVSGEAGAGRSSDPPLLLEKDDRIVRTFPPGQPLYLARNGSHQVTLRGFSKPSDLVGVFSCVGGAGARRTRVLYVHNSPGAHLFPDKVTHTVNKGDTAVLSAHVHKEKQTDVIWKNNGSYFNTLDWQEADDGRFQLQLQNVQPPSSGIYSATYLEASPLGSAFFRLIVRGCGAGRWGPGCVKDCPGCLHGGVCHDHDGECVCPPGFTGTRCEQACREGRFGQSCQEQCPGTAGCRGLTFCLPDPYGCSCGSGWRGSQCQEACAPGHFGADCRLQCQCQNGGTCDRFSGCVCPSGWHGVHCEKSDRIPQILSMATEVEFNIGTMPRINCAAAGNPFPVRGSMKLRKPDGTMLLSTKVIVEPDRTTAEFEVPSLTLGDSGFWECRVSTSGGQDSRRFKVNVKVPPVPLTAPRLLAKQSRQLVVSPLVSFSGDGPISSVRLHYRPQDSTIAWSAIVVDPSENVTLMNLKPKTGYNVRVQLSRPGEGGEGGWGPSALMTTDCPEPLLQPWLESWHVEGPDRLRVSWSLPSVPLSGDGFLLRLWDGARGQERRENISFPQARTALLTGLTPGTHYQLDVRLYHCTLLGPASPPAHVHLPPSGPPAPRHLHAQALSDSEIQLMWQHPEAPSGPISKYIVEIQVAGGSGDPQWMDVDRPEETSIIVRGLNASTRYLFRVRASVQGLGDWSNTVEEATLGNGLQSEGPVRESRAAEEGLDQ
# T2: recombinant human Tie1-Fc (Tie1 extracellular domain fused to human Fc) (human, UniProt P35590 25-759)
# T2 construct: also called Tie-1 Fc Human; not shown: human Fc
# T2 sequence: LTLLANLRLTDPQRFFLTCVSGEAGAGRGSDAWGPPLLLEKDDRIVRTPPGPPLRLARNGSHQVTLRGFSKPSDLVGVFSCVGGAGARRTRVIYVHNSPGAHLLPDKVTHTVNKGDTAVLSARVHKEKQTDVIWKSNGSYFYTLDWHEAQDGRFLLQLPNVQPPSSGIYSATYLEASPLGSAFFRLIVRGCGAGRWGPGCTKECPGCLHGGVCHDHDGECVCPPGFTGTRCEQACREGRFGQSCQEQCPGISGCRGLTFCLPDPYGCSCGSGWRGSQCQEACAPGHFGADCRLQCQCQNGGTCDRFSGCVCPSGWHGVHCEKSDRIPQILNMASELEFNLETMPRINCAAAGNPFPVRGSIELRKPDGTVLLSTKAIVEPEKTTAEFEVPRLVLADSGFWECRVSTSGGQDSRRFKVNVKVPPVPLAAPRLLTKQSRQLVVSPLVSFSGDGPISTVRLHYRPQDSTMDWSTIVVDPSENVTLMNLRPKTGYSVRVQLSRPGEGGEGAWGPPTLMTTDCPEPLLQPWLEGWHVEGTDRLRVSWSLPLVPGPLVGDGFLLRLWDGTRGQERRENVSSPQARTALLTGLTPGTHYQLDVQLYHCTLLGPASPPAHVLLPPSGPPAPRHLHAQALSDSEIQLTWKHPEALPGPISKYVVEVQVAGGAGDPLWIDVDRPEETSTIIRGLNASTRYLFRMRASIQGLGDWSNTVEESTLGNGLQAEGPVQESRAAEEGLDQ
# Assays:
# [1] = biological target: T3, endogenous human Tie1 of primary human endothelial cells (HDMEC/HDMVEC, HUVEC) and human tissues (human, UniProt P35590 25-1138); assay: immunofluorescence, HDMEC
# T3 construct: also called endogenous Tie1; Tie-1 in HUVEC
# [2] = biological target: T4, human Tie1, full length, V5-tagged (pcDNA3-Tie1-V5), in transiently transfected COS1 cells (human, UniProt P35590 25-1138); assay: Western blot, Tie1-V5-transfected COS1
# T4 construct: it is not expressly tied to the pcDNA3-Tie1-V5 construct; also called Tie1-transfected; transfected Tie1
# Method: COS1 cells were transfected with pcDNA3-Tie1-V5 (1 μg DNA per 10 cm cell culture plate) using FUGENE 6 (Roche) according to manufacturer's instruction and incubated for 48 h before stimulation. For immunoprecipitation, Tie1 transfected cells and HMVEC cells were lysed in DOC-RIPA lysis buffer (50 mM Tris-HCl pH 8.0, 150 mM NaCl, 1% Triton-X-100, 0.1% SDS, 1% DOC, 10 mM EDTA) supplemented with aprotinin, leupeptin, PMSF and sodium vanadate. Immunoprecipitation was carried out from equal amount of cell lysates by incubating with polyclonal anti-human Tie1 antibodies (R&D), monoclonal anti-V5 antibodies (Invitrogen) or altogether 23 anti-Tie1 antibodies (1μg/ml) for 1 to 2 h followed by incubation with protein G-Sepharose (Amersham Pharmacia Biotech AB) for 1 h. The immunoprecipitates were washed twice with PBS-T and twice with PBS, followed by elution with the Laemmli buffer and separation in 8% SDS-PAGE. The blots were probed with the 23 anti-Tie1 antibodies (5 μg/ml) and subsequently anti-human Fc antibodies conjugated with HRP.
# Next, to find out if the anti-Tie1 antibodies recognize Tie1 in living cells, those cells were studied by immunofluorescence staining.
# [3] = biological target: T1, recombinant mouse Tie1-Fc; assay: BIAcore, mouse Tie-1 Fc over IgG coupled to CM5 chip, 1:1 fit
# Method: This was then used to transiently transfect HEK293T cells using established procedures. The IgG was purified from the culture supernatant using protein A column chromatography using established procedures and the subsequent IgG was then tested for binding activity using surface plasmon resonance (BIAcore). […] The IgG were directly coated via onto a CM5 chip. […] All flow cells were subsequently deactivated with a 7 minute pulse of 1M ethanolamine hydrochloride pH8.5. All analysis was performed in HBS buffer. Purified recombinant mouse Tie-1 Fc was diluted 1/6.5 in HBS to obtain a 400 nM stock solution. Serial dilutions were made to obtain 200 nM, 100 nM, 50 nM and 25 nM Tie-1 Fc stocks. For analysis of the association phase samples were injected at 30 μl/min for 8.3 minutes using kinject program. This was followed by a 40 minutes dissociation phase. Any antigen remaining associated to the surface was stripped from the IgG surface at a flow of 50μl/min with two injections of 10 mM glycine pH1.5 for 30 seconds. All samples were run and analyzed in duplicate
# (§1) Sensorgrams were analyzed using the simultaneous ka/kd fitting program with 1:1 model in the BIAEVALUATION™ software 3.1.
# [4] = biological target: T2, recombinant human Tie1-Fc (Tie1 …); assay: BIAcore, human Tie-1 Fc over IgG coupled to CM5 chip, 1:1 fit
# Method: The IgG were directly coated onto a CM5 chip. […] All flow cells were subsequently deactivated with a 7 minute pulse of 1M ethanolamine hydrochloride pH 8.5. All analysis was performed in HBS buffer. Purified recombinant human Tie-1 Fc was diluted 1/28.7 in HBS to obtain a 400 nM stock solution. Serial dilutions were made to obtain 200 nM, 100 nM, 50 nM and 25 nM Tie-1 Fc stocks. For analysis of the association phase samples were injected at 30 μl/min for 8.3 minutes using kinject program. This was followed by a 40 minutes dissociation phase. Any antigen remaining associated to the surface was stripped from the IgG surface at a flow of 50μl/min with two injections of 10 mM glycine pH 1.5 for 30 secods. All samples were run and analyzed in duplicate
# as §1
# [5] = biological target: T3, endogenous human Tie1 of primary human …; assay: cell-based or functional assay
binding result [1],binding result [2],Kd [3] [nM],koff [3] [s⁻¹],kon [3] [M⁻¹ s⁻¹],Kd [4] [nM],koff [4] [s⁻¹],kon [4] [M⁻¹ s⁻¹],IC50 of tube formation by HUVECs [5],Binder
binds,binds,,,,,,,,"P-B3 IgG (anti-Tie1 isolate p-B3, human IgG1) (antibody, V domains shown, the VL entry stops within FR4) VH: EVQLLESGGGLVQPGGSLRLSCAASGFTFSRYGMHWVRQAPGKGLEWVSVISPSGGMTYYADSVKGRFTISRDNTKNTLYLQMNSLRAEDTAVYYCARVGATGPFDIWGQGTMVTVSS VL: DIQMTQSPATLSLSPGERATLSCRASQSVSTYLAWYQQKPGQAPRLLIYDASNRATGIPGRFSGSGSGTDFTLTISSLEAEDFAVYYCQQRSSWPITFGQG"
,,14.9,9.2e-05,6170,5.83,3.61e-05,6190,10 ng/ml and 66 pM,"E3 IgG (parental anti-Tie1 antibody E3, human IgG1) (antibody, V domains shown, also called E3 IgG1; parental E3) VH: EVQLLESGGGLVQPGGSLRLSCAASGFTFSMYGMVWVRQAPGKGLEWVSVISPSGGNTGYADSVKGRFTISRDNSKNTLYLQVNSLRAEDTAVYYCARAPRGYSYGYYYWGQGTLVTVSS VL: DIQMTQSPLSLSASVGDRVTITCRASQGIGHYLAWYQQKPGKVPKLLIYTASTLQSGVPSRFSGSGSGTDFTLTINSLQPEDVATYYCQQFNSYPHTFGQGTRLDIK"
,,15,8.99e-05,6000,5.17,3.67e-05,7090,10 ng/ml and 66 pM,"germlined E3 IgG (light chain framework regions germlined to DPK4; heavy chain as parental) (antibody, V domains shown, also called germlined E3 IgG1; germlined anti Tie1 E3-IgG) VH: EVQLLESGGGLVQPGGSLRLSCAASGFTFSMYGMVWVRQAPGKGLEWVSVISPSGGNTGYADSVKGRFTISRDNSKNTLYLQVNSLRAEDTAVYYCARAPRGYSYGYYYWGQGTLVTVSS VL: DIQMTQSPSSLSASVGDRVTITCRASQGIGHYLAWYQQKPGKVPKLLIYTASTLQSGVPSRFSGSGSGTDFTLTISSLQPEDVATYYCQQFNSYPHTFGQGTRLEIK"
